Data as given in the supplement of paper PMC9170038.

System: MS2 coat protein
Test: apparent KD of MS2 coat protein; designed switch direction (-1 OFF switch, 1 ON switch): -1; higher = weaker reporter binding
Method in brief: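 Designed RNA switches sharing common flanks were transcribed on Illumina chips by stalled E. coli RNA polymerase. They were titrated with SNAP-549-labelled MS2 coat protein, from 0.7 or 1.5 nM doubling to 3 µM, in Tris-HCl pH 7.5 buffer with KCl, MgCl2, BSA, DTT, tRNA and Tween-20. Titrations ran without input, with 200 uM small-molecule ligand, or with an oligonucleotide input. The apparent KD of each design is the median over its clusters, after curve-fitting of normalised cluster fluorescence.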

[1] = input ligand: microRNA oligo, concentration not stated
[2] = Eterna round: R95, input ligand: microRNA oligo, concentration not stated
[3] = Eterna round: R95, input ligand: FMN 200 uM
[4] = Eterna round: R95, input ligand: none

| Sequence | apparent KD of MS2 coat protein (input ligand: FMN 200 uM) [nM] | apparent KD of MS2 coat protein [1] [nM] | apparent KD of MS2 coat protein (input ligand: none) [nM] | apparent KD of MS2 coat protein [2] [nM] | apparent KD of MS2 coat protein [3] [nM] | apparent KD of MS2 coat protein [4] [nM] |
| --- | --- | --- | --- | --- | --- | --- |
| CUGCUCCGUGUAGGAUAUGCAUACCACCACUAUGCAGAAGGACAUGAGGAUCACCCAUGUAUGUUAUUAUCACGUGUAGCGUCC [Design 18] (Eterna round: R96, puzzle: Exclusion NG 1) | 23 | 14.9 | 20.6 |  |  |  |
| AUAUAGAUAGUCAGGAUAUUCUAGUGAUAACAGUAGGAGAAGGGACAUGAGGAUCACCCAUGUAGAUAGUGCAC [Brourd's EX4 #15] (Eterna round: R97, puzzle: Brourd's mod of Exclusion 4) | 42.9 |  | 27 |  |  |  |
| GGACUGAAGCUAGGAUAUCCCGUGUGAUCACGAGGAGAAGGAGCGCACGGGUAGUCAACAUGAGGAUCACCCAUGUACAGUCCA [Laditiqu] (Eterna round: R96, puzzle: Exclusion NG 1) | 50.1 | 15.4 | 20.6 |  |  |  |
| GGAUUUCGAGGAUAUACACGCAAAUAGGUGUAUCCUUUAGCACAUGAGGAUCACCCAUGUAGAAGGCGGGUACU [Eternabot (L1) Solution 19] (Eterna round: R97, puzzle: Exclusion 2) | 136 |  | 150 |  |  |  |
| GUCAUACAUGAGGAUCACCCAUGUAAGGAUAUGCUAGCGGUCGGCUGACUGACUGCUAGCAGAAGGUACAUGAU (puzzle: Exclusion 1) |  |  |  | 61.5 |  |  |
| GUAACAUGCUGGUGAUCAUACAUGAGGAUCACCCAUGUAACAAGCUUUUUGUUCGUCUUAAUUUAAUUGAUUACUAG [Stov1/8-B2] (Eterna round: R97, puzzle: Sensor, turn-off variant 1) | 202 |  | 196 |  |  |  |
| UUAUUGUAUGUAGGAUAUGCAUAUUAUUAUUAUGCAGAAGGACAUGAGGAUCACCCAUGUAUAUUAUUAUUAUAUAUUAUAUAU [Title] (Eterna round: R96, puzzle: Exclusion NG 1) |  | 24.6 |  |  |  |  |
| GAAUGAGAGCAGGAUAUCUUAUAAAUGUAUGAAAGAGAAGGGCUCACAUGAGGAUCACCCAUGUGGUCCUAGAU [jl-ex6-4.76 jandersonlee mod] (Eterna round: R97, puzzle: Exclusion 6) | 645 |  | 35.2 |  |  |  |
| GACAGGGCAGGAUAUCGAGAUCCGCACAUGAGGAUCACCCAUGUUCGGUCGAAAGACCGACGAGAAGGGCCGUGUC [Omei Ex5 E5] (Eterna round: R97, puzzle: Exclusion 5) | 651 |  | 869 |  |  |  |
| CUGGUCCGAGGAUAUAUUAAGUGAUACAUGAGGAUCACCCAUGUAAUUUGAUGGAUAUAAAUAGAAGGCGGACUAG [Mat - Exclusion 5 - JL mod - D43] (puzzle: Exclusion 5) |  |  |  | 37.1 | 59.8 | 43.8 |
| UAGCAUUGCCAAAGGUAGUGCAAAACAUGAGGAUCACCCAUGUAGGAUAUGGUAGGCAAAGCUUACCAGAAGGACAUGAUAAUU [Mat - Exclusion NG 3 - Mod of JL - D17] (Eterna round: R96, puzzle: Exclusion NG 3) | 204 | 46.3 | 51.5 |  |  |  |
| AAUAAAACAUAGGAUAUCGAAUUUAUUAUUUAACGAGAAGGAUGAACAUGAGGAUCACCCAUGUGGUAUCAUGG [Mat - Exclusion 6 - JL Mod - D24] (puzzle: Exclusion 6) |  |  |  | 190 | 258 | 207 |
| UGGGAGGGAGGAUAUACGAAAGUUAUUCUCAUGUCAGACCCACAUGAGGAUCACCCAUGUAGAAGGCCCGGGUC [EX2 B.17] (Eterna round: R97, puzzle: Exclusion 2) | 358 |  | 203 |  |  |  |
| AUAUUAAUAUAGGAUAUCGAAUUUAUAAAUUAUCGAGAAGGAUAAACAUGAGGAUCACCCAUGUGGUAUCAUGG [Mat - Exclusion 6 - JL Mod - D42] (puzzle: Exclusion 6) |  |  |  | 222 | 239 | 346 |
| AAUAAUAAUGUGAGGAUAUCUAGAGCUUCGGCUCUAGAGAAGGCACAUGAGGAUCACCCAUGUCUCAAUAAUAA [BmEx4/2-E4] (Eterna round: R97, puzzle: Brourd's mod of Exclusion 4) | 263 |  | 53.4 |  |  |  |
| GACAGGGCAGGAUAUCGAAUUCCUCACAUGAGGAUCACCCAUGUUCAGUCGAAAGACUGACGAGAAGGGCCGUGUC [Omei Ex5 E1] (Eterna round: R97, puzzle: Exclusion 5) | 1020 |  | 2290 |  |  |  |
| CGACGACAUGAGGAUCACCCAUGUCAGGAUAUGGAAAACCAGAAUAUAUUUUAACUUUCCAGAAGGGACAGGUC [Eternabot (Original) Solution 1] (Eterna round: R97, puzzle: Exclusion 1) | 19.6 |  | 18.1 |  |  |  |

| Sequence | apparent KD of MS2 coat protein (input ligand: FMN 200 uM) [nM] | apparent KD of MS2 coat protein [1] [nM] | apparent KD of MS2 coat protein (input ligand: none) [nM] | apparent KD of MS2 coat protein [2] [nM] | apparent KD of MS2 coat protein [3] [nM] | apparent KD of MS2 coat protein [4] [nM] |
| --- | --- | --- | --- | --- | --- | --- |
| GGGCCCGGAGGAUAUACAAUGGGCCCGGGAAAUUGGGCCCUACAUGAGGAUCACCCAUGUAGAAGGCCGGGCCC [-40.2, -38.1 kcal A 24%, 5c,0] (Eterna round: R97, puzzle: Exclusion 2) | 16.1 |  | 12.5 |  |  |  |
| GAGCUAUGAGGAUAUGCAUAGAUACGGAUUCGUGUAGUACUACAUGAGGAUCACCCAUGUAGAAGGCGUGGCAG [Mat - Exclusion 2 - Mod of JL - D76] (puzzle: Exclusion 2) |  |  |  | 13.9 |  |  |
| AGAAACUCAAGAGGAUAUCACAUGAGGAUCACCCAUGUAUAGCGCGCUAUGCUAGUCCUCGUAUUUGAGAAGGUUUGAAAUAAG [Mat - Exclusion NG 2 - Mod of JL - D79] (Eterna round: R96, puzzle: Exclusion NG 2) | 29.8 | 12.5 | 18.3 |  |  |  |
| UUCGUGCUGCUUUGCUGUACGAGUACAUGAGGAUCACCCAUGUAGGAUAUGGACAUGAGGAUCACCCAGAAGGAUAUGUGUUGC [salish99_ExNG3_r04_508] (Eterna round: R96, puzzle: Exclusion NG 3) |  | 87.5 |  |  |  |  |
| CGUGCGUAUGUGAGGAUAUGCUGGUCCUUGGAUCGGCAGAAGGCACAUGAGGAUCACCCAUGUGGUGUCGUACC [salish99_Bmod_ex4_074] (puzzle: Brourd's mod of Exclusion 4) |  |  |  | 123 |  |  |
| UCACGGGUUUGAGGAUAUAUAUUUAUUAUUUUAAUAGAAGGCAAAGAGAUAGUUUUUUCACUAUACAUGAGGAUCACCCAUGUU [JR_ExcNG1_Sub087] (Eterna round: R96, puzzle: Exclusion NG 1) |  | 27.6 |  |  |  |  |
| CCGCAACAUGAGGAUCACCCAUGUCAGGAUAUCGUACGUUCGUCGAUAGACGAUCGUACGAGAAGGGUGUGCGG [Mat - Exclusion 1 - Eli Mod - D35] (Eterna round: R97, puzzle: Exclusion 1) | 81.5 |  | 103 |  |  |  |
| AAGAGUGAGCGAGGAUAUUGAUUUUGGCGUAGUCAAGAAGGCGCGUACAUGAGGAUCACCCAUGUGCUCAGAGCGCAAAAGGGU [Gequon] (Eterna round: R96, puzzle: Exclusion NG 1) | 208 | 49.8 | 68.2 |  |  |  |
| UAUUUAUAUGAAGGAUAUACUUAACAUGAGGAUCACCCAUGUGGUGUUGUGAGUGAGUGAGUUUAGUAGAAGGUCAAUGAUUUU [JMF's solution 74] (Eterna round: R96, puzzle: Exclusion NG 2) | 870 | 286 | 311 |  |  |  |
| ACCAUAGAUGUAGGAUAUCCAUGAAGAUAACAAGGAGAAGGACAUGAGGAUCACCCAUGUAAGUAUUAUGAAUGUAGCGACAGC [Meechl Ex NG1] (Eterna round: R96, puzzle: Exclusion NG 1) | 82.1 | 34 | 59.5 |  |  |  |
| UUGUUCUGAGGAUAUACAUGAGGAUCACCCAUGUGUUUCAGCUAGGAGACUAGCGAAAGUAGAAGGCUGUACUC [salish99_ex3_r4_017] (Eterna round: R97, puzzle: Exclusion 3) | 26.9 |  | 24.9 |  |  |  |
| UUUUUGUGAGGAUAUCAGUAGUAGAACAAUAGUACUACUACUGAGAAGGCACAUGAGGAUCACCCAUGUUCCUU [Fiskers Ex 4 Super stable 44 mod 12] (puzzle: Exclusion 4) |  |  |  | 14.9 |  |  |
| UUUAUAUAUGAAGGAUAUACUUAACAUGAGGAUCACCCAUGUGGUGUUGUGAGUGAGUGAGUUUAGUAGAAGGUCAAUGAUUUU [JMF's solution 70] (Eterna round: R96, puzzle: Exclusion NG 2) | 810 | 306 | 360 |  |  |  |
| UCGACGUCGUCAGGAUAUAGUUUUAAUGUCAUGCUUUUGUUUUUACAUGAGGAUCACCCAUGUCGCUAGAAGGGACUAAAGAUU [JR_ExcNG2_Sub013] (Eterna round: R96, puzzle: Exclusion NG 2) | 36.7 | 34.1 | 41.7 |  |  |  |
| AGCUAGUGAGGAUAUACGAACAUGUCAAAAGACUGUAAGGGACAUGAGGAUCACCCAUGUAGAAGGCACUAGCA [Diamond 55] (Eterna round: R96, puzzle: Exclusion 2) |  | 32.4 |  |  |  |  |
| AUCCUGUCAGGAUAUCUAGUUAAAUACAUGAGGAUCACCCAUGUCACUGGGCCGUCCUUAAGAGAAGGGACAGGCG [Edabe] (puzzle: Exclusion 5) |  |  |  | 34.5 | 169 | 39.7 |
| CACCGUUACAUAGGAUAUGUUACAUGAGGAUCACCCAUGUAAUAAAUGAGAAUUUCGAAUGUAAUACAGAAGGAUGGAAUCGGC [Ostracism 71 - Jieux - Exclusion NG 2] (Eterna round: R96, puzzle: Exclusion NG 2) | 28.7 | 16.6 | 17.7 |  |  |  |
